For four substances, stoichiometry N results are on record in article doi:10.1101/354001.

Broadly, the stoichiometry N is a count of units in the complex or per binding partner.

Common to all, as to experiment: SEC + other: SDS-PAGE
The target in assay [1] is Δ(185-243) WT apoA-I (globular domain, residues 1-184, of human apolipoprotein A-I) (human).
In assay [2] the target is Δ(185-243) Glu34Lys apoA-I (globular domain, residues 1-184) (human).
Assay [3] has as its target Δ(185-243) Leu159Arg apoA-I (globular domain, residues 1-184) (human).
The target of assay [4] is Δ(185-243) Phe71Tyr apoA-I (globular domain, residues 1-184) (human).

Take “Δ(185-243) WT apoA-I (globular domain, residues 1-184, of human apolipoprotein A-I) (domain or fragment)”: the stoichiometry N in assay [1] was found to be 2.

In the case of “Δ(185-243) Glu34Lys apoA-I (globular domain, residues 1-184) (domain or fragment)”, the stoichiometry N in assay [2] was determined as 2.

Consider “Δ(185-243) Leu159Arg apoA-I (globular domain, residues 1-184) (domain or fragment)”, for which the stoichiometry N in assay [3] was found to be 2.

Turning to “Δ(185-243) Phe71Tyr apoA-I (globular domain, residues 1-184) (domain or fragment)”, in assay [4], the stoichiometry N was determined as 2.
